Three molecules from patent US20220227875A1 (UNIVERSITY OF FLORIDA RESEARCH FOUNDATION, published 2022) can be followed below.

Test [1] has as its target human thyroid-stimulating hormone receptor (TSHR) (human) (UniProt P16473). As to the kind of experiment: cell-based or functional assay.
Test [2] deals with human thyroid-stimulating hormone receptor (TSHR) (human, UniProt P16473 21-764). As to the kind of experiment: cell-based or functional assay.

“recombinant thyroid-stimulating hormone (TSH) (ligand)” yielded a cAMP levels in HEK-TSHR cells, EC50 in test [1] of 0.168 µg/mL. The same measure, in the same setting: in the case of thyroid-stimulating antibody M22 it was 42.5 µg/mL.

B1: K1-70 thyroid blocking antibody (commercially available K1-70 antibody) (antibody, V domains shown)
VH: EVQLVQSGAEVKKPGQSLKISCKASGYSLTDNWIGWVRQKPGKGLEWMGIIYPGDSDTRYSPSFQGQVTISADKSINTAYLQWSSLKASDTAIYYCVGLDWNYNPLRYWGPGTLVTVSS
VL: QSVLTQPPSVSAAPGQKVTISCSGSSSDIGSNYVSWYQQFPGTAPKLLIYDNNKRPSAIPDRFSGSKSGTSATLGITGLQTGDEADYYCGTWDSRLGIAVFGGGTQLTVLG
Turning to B1, in test [2], the “inhibition of M22 (100 ng/ml)-induced cAMP in HEK-TSHR cells, IC50” value came to 1.38 µg/mL and the “inhibition of TSH (150 ng/ml)-induced cAMP in HEK-TSHR cells, IC50” value was determined as 1.18 µg/mL.
